Residue numbers refer to the chain shown, from its start. In names and notes the source's numbering stands.
Assays:
[1] = target: T1, RlArDHT (L-arabinonate dehydratase from Rhizobium leguminosarum bv. trifolii) (Rhizobium leguminosarum, UniProt B5ZZ34, H579L); test: X-ray crystal structure, […] Å, co-crystallized; format: binding; settings: product analog; active site of chain D, coordinated to Mg2+; [2Fe-2S] present; pH 8.5, 20 °C
T1 construct: gene araD; full length with N-terminal Strep-tag II (WSHPQFEK), codon-optimized, pBAT4, E. coli BL21(DE3); 579 residues without tag; [2Fe-2S] and Mg2+; homotetramer

purified protein [2] = substrate: O=C(O)[C@H](O)[C@@H](O)[C@@H](O)CO; test: purified protein; format: biochemical, Rhizobium leguminosarum; settings: pH 8.0, 30 °C, 50 mM Tris-HCl, 10 mM MgCl2
purified protein [3] = substrate: C[C@@H](O)[C@H](O)[C@H](O)[C@@H](O)C(=O)O; test: purified protein; format: biochemical, Rhizobium leguminosarum; settings: pH 8.0, 30 °C, 50 mM Tris-HCl, 10 mM MgCl2
purified protein [4] = substrate: O=C(O)[C@H](O)[C@@H](O)[C@H](O)CO; test: purified protein; format: biochemical, Rhizobium leguminosarum; settings: pH 8.0, 30 °C, 50 mM Tris-HCl, 10 mM MgCl2
purified protein [5] = substrate: O=C(O)[C@H](O)[C@@H](O)[C@@H](O)[C@H](O)CO; test: purified protein; format: biochemical, Rhizobium leguminosarum; settings: pH 8.0, 30 °C, 50 mM Tris-HCl, 10 mM MgCl2
purified protein [6] = substrate: O=C(O)[C@H](O)[C@@H](O)[C@H](O)[C@H](O)CO; test: purified protein; format: biochemical, Rhizobium leguminosarum; settings: pH 8.0, 30 °C, 50 mM Tris-HCl, 10 mM MgCl2
[7] = target: the molecule itself; test: crystal structure; H579L co-crystallised with 2-oxobutyrate, hanging-drop vapor diffusion at 20 °C; 14% (w/v) PEG 10000, 200 mM ammonium acetate, 100 mM Tris pH 8.5; molecular replacement with PDB 5J84

T1 sequence (B5ZZ34 whole entry H579L): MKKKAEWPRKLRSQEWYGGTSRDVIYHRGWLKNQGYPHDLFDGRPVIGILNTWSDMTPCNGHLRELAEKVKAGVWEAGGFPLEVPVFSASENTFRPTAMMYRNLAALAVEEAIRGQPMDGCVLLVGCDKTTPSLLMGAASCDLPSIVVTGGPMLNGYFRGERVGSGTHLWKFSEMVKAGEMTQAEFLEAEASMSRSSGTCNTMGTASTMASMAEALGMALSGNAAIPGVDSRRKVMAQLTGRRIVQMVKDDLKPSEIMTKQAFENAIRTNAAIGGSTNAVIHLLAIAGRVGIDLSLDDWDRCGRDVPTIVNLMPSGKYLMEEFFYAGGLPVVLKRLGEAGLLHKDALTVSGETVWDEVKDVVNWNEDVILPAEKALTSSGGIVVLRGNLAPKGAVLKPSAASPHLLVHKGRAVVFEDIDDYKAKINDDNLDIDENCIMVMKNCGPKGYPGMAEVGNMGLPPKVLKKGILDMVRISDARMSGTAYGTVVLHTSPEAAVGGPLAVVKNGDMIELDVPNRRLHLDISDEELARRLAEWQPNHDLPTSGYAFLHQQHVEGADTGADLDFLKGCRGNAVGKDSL

Molecule: CCC(=O)C(=O)O [2-oxobutyrate]
- X-ray crystal structure, 2.4 Å, co-crystallized [1]: 2-Oxobutyrate was refined inside the substrate-binding cavity in chain D of the H579L variant

B1: RlArDHT (L-arabinonate dehydratase from Rhizobium leguminosarum bv. trifolii) (Rhizobium leguminosarum bv. trifolii WSM2304) (protein)
chain: MKKKAEWPRKLRSQEWYGGTSRDVIYHRGWLKNQGYPHDLFDGRPVIGILNTWSDMTPCNGHLRELAEKVKAGVWEAGGFPLEVPVFSASENTFRPTAMMYRNLAALAVEEAIRGQPMDGCVLLVGCDKTTPSLLMGAASCDLPSIVVTGGPMLNGYFRGERVGSGTHLWKFSEMVKAGEMTQAEFLEAEASMSRSSGTCNTMGTASTMASMAEALGMALSGNAAIPGVDSRRKVMAQLTGRRIVQMVKDDLKPSEIMTKQAFENAIRTNAAIGGSTNAVIHLLAIAGRVGIDLSLDDWDRCGRDVPTIVNLMPSGKYLMEEFFYAGGLPVVLKRLGEAGLLHKDALTVSGETVWDEVKDVVNWNEDVILPAEKALTSSGGIVVLRGNLAPKGAVLKPSAASPHLLVHKGRAVVFEDIDDYKAKINDDNLDIDENCIMVMKNCGPKGYPGMAEVGNMGLPPKVLKKGILDMVRISDARMSGTAYGTVVLHTSPEAAVGGPLAVVKNGDMIELDVPNRRLHLDISDEELARRLAEWQPNHDLPTSGYAFLHQQHVEGADTGADLDFLKGCRGNAVGKDSH
notes: full length with N-terminal Strep-tag II (WSHPQFEK), codon-optimized, pBAT4, E. coli BL21(DE3); 579 residues without tag; [2Fe-2S] and Mg2+; homotetramer
- Km (purified protein [2]): 1200 ± 200 µM
- kcat (purified protein [2]): 11.3 ± 0.5 s⁻¹
- kcat/Km (purified protein [2]): 9500 ± 1170 M⁻¹ s⁻¹
- Km (purified protein [3]): 240 ± 70 µM
- kcat (purified protein [3]): 17.5 ± 1 s⁻¹
- kcat/Km (purified protein [3]): 73300 ± 18300 M⁻¹ s⁻¹
- Km (purified protein [4]): 1300 ± 300 µM
- kcat (purified protein [4]): 0.413 ± 0.0217 s⁻¹
- kcat/Km (purified protein [4]): 317 ± 66.7 M⁻¹ s⁻¹
- Km (purified protein [5]): 740 ± 150 µM
- kcat (purified protein [5]): 11.5 ± 0.5 s⁻¹
- kcat/Km (purified protein [5]): 15500 ± 2330 M⁻¹ s⁻¹
- Km (purified protein [6]): 5700 ± 1500 µM
- kcat (purified protein [6]): 6.5 ± 0.833 s⁻¹
- kcat/Km (purified protein [6]): 1130 ± 150 M⁻¹ s⁻¹

B2: L-arabinonate dehydratase from Rhizobium leguminosarum bv. trifolii, variant H579L (enzyme, UniProt B5ZZ34 1-579, looked up)
chain: B1 chain with H579L
modifications: KCX129 (6N-carboxylysine)
notes: L-arabinonate dehydratase (RlArDHT) from Rhizobium leguminosarum bv. trifolii, gene araD, GenBank KT260159, codon-optimised synthetic gene; His579 is the last C-terminal residue, changed to Leu; Holds a [2Fe-2S] cluster and Mg2+ in each chain; co-crystallised with 2-oxobutyrate (seen in chain D only); The introduction calls the same variant H588L, which may count the N-terminal tag residues; also …
- stoichiometry N [7]: 4

B3: RlArDHT (L-arabinonate dehydratase from Rhizobium leguminosarum bv. trifolii) (Rhizobium leguminosarum bv. trifolii WSM2304; H579L) (protein)
chain: B1 chain with H579L
notes: as for B1
- Km (purified protein [2]): 1000 ± 200 µM
- kcat (purified protein [2]): 2 ± 0.0833 s⁻¹
- kcat/Km (purified protein [2]): 2000 ± 333 M⁻¹ s⁻¹
- Km (purified protein [3]): 820 ± 60 µM
- kcat (purified protein [3]): 21.5 ± 0.5 s⁻¹
- kcat/Km (purified protein [3]): 26200 ± 1330 M⁻¹ s⁻¹
- Km (purified protein [4]): 1200 ± 200 µM
- kcat (purified protein [4]): 0.107 ± 0.00333 s⁻¹
- kcat/Km (purified protein [4]): 88.3 ± 11.7 M⁻¹ s⁻¹
- Km (purified protein [5]): 900 ± 150 µM
- kcat (purified protein [5]): 1.48 ± 0.0667 s⁻¹
- kcat/Km (purified protein [5]): 1580 ± 183 M⁻¹ s⁻¹
- Km (purified protein [6]): 5400 ± 900 µM
- kcat (purified protein [6]): 0.667 ± 0.05 s⁻¹
- kcat/Km (purified protein [6]): 125 ± 11.7 M⁻¹ s⁻¹

From publication PMC11316719, “Unveiling the importance of the C-terminus in the sugar acid dehydratase of the IlvD/EDD superfamily” (Applied Microbiology and Biotechnology, 2024)
